Measurements taken from US20250352624A1, “SUPEROXIDE DISMUTASE AND USES THEREOF FOR PREVENTING OR TREATING DRY EYE SYNDROME” (GENOFOCUS, INC., priority 2021, published 2025).

Assays:
Format in all cases: in vivo
[1] = system: experimental dry eye (EDE)-induced C57BL/6 mouse model; assay: Tear film break-up time in experimental dry eye mice
Procedure: (§1) To induce experimental dry eye, 7- to 8-week-old C57BL/6 mice (purchased from Damool Science) were injected subcutaneously with scopolamine hydrochloride at 0.5 mg/0.2 ml three times a day under exposure to a ventilating device for 18 hours a day. The humidity was maintained at 30%, and the temperature was maintained at 25° C. The C57BL/6 mice were classified into 7 groups, depending on concentrations of the oral drug to be administered, as shown in Table 6.
(§2) After inducing experimental dry eye in the experimental mice, the drugs prepared in Example 3 were orally administered at 2 μL per dose once a day to the treatment groups (administered at 13:30 every day). In both eyes of all mice, at baseline, day 5, and day 10, tear volume and tear film break-up time were measured and corneal fluorescent staining score was examined. The mice were then sacrificed and tissue analysis was performed. Each group consisted of 6 animals.
To evaluate tear film stability, which is known to be the most important clinical factor in dry eye, tear film break-up time was measured. 1 μl of 1% fluorescent dye (fluorescein) was instilled into the lower conjunctival sac of each mouse, and then each mouse was allowed to blink about three times. Subsequently, the eyes were gently made open, and then the time (seconds) until the first defect occurred in the stained tear film was measured using a slit lamp microscope equipped with a cobalt blue filter. This was repeated three times to obtain the average value.

[2] = system: experimental dry eye (EDE)-induced C57BL/6 mouse model; assay: Corneal fluorescent staining score in experimental dry eye mice; conditions: for corneal fluorescent staining score: total 0 to 16 points
Procedure: as §1, §2
1 μL of 1% fluorescent dye was instilled into the eyes of each mouse, followed by washing with saline. Subsequently, the cornea of each mouse was observed using a slit lamp microscope to score the degree of epithelial injury (the extent to which fluorescent staining occurred).

[3] = system: experimental dry eye (EDE)-induced C57BL/6 mouse model; assay: Inflammatory cytokines by Luminex multiplex immunobead assay
Procedure: as §1
(§3) In both eyes of all mice, at baseline, day 5, and day 10, tear volume and tear film break-up time were measured and corneal fluorescent staining score was examined. The mice were then sacrificed and tissue analysis was performed. Each group consisted of 6 animals.
Conjunctival tissue was excised and collected from 6 eyes of 3 animals in each group, and then immersed in lysis buffer containing protease inhibitors for 30 minutes. Subsequently, the resultant was centrifuged and stored −80° C. Then, the concentrations of IFN-γ, IL-1Bβand TNF-α in the cornea and conjunctiva were analyzed using the Luminex multiplex immunobead assay.

[4] = system: experimental dry eye (EDE)-induced C57BL/6 mouse model; assay: CD4+IFN-γ+ T cells by flow cytometry
Procedure: as §1, §2
(§4) The cornea, conjunctiva, and lacrimal gland were excised, sectioned with scissors, and then shaken with 0.5 mg/mL of collagenase type D (manufactured by Roche Applied Science, Indianapolis, IN, USA) at 37° C. for 60 minutes. The tissue was ground and then allowed to pass through a cell strainer, followed by centrifugation. The number of CD4+IFN-γ+T cells was calculated by performing flow cytometry with fluorescein-conjugated anti-CD4 antibody and phycoerythrin-conjugated anti-IFN-γ antibody, and the number of DCF-DA cells was calculated using the CM-H2DCFDA kit (manufactured by Thermo Fisher Scientific, Waltham, MA, USA).

[5] = system: experimental dry eye (EDE)-induced C57BL/6 mouse model; assay: Reactive oxygen species (DCF-DA) by flow cytometry
Procedure: as §1, §2, §4

[6] = system: experimental dry eye (EDE)-induced C57BL/6 mouse model; assay: Goblet cells in conjunctiva (PAS staining histology)
Procedure: as §1, §2
The eye and accessory tissues were excised from one eye of one animal in each group, fixed in 4% paraformaldehyde, embedded in paraffin, and then PAS staining was performed on two cross-sectional pieces of the tissue. In each piece, the density of goblet cells in the conjunctiva was calculated using a microscope and image analysis software.

[7] = system: experimental dry eye (EDE)-induced C57BL/6 mouse model; assay: Apoptosis (TUNEL immunofluorescent staining); conditions: for number of necrotic cells in the cornea: TUNEL staining
Procedure: as §1, §3
The eye and accessory tissues were excised from one eye of one animal in each group, fixed in 4% paraformaldehyde, embedded in paraffin, and then TUNEL staining was performed on two cross-sectional pieces of the tissue. […]

[8] = before drug administration, 2.5 mg/kg oral group
[9] = before drug administration, 5 mg/kg oral group
[10] = before drug administration, 10 mg/kg oral group
[11] = day 5 of administration, 2.5 mg/kg oral once a day
[12] = day 5 of administration, 5 mg/kg oral once a day
[13] = day 5 of administration, 10 mg/kg oral once a day
[14] = day 10 of administration, 2.5 mg/kg oral once a day
[15] = day 10 of administration, 5 mg/kg oral once a day
[16] = day 10 of administration, 10 mg/kg oral once a day
[17] = days 5 and 10, 0.05% CsA eye drop, SodA2 2.5, 5 and 10 mg/kg oral
[18] = conjunctiva, 2.5 mg/kg oral once a day
[19] = conjunctiva, 5 mg/kg oral once a day
[20] = conjunctiva, 10 mg/kg oral once a day
[21] = cornea and conjunctiva, CsA and oral SodA2 groups
[22] = cornea, 2.5 mg/kg oral once a day
[23] = cornea, 5 mg/kg oral once a day
[24] = cornea, 10 mg/kg oral once a day

B1: SodA2: variant Mn-SOD of Bacillus amyloliquefaciens GF423 sodA, Asn73 and Asn136 replaced with Asp, SEQ ID NO: 4; given orally shellac-coated, mixed with dextrin (protein, listed as Bacillus amyloliquefaciens)
chain: MAYKLPELPYAYDALEPHIDKETMTIHHTKHHNTYVTNLNKAIEGSALAEKSVDELVADLNAVPEDIRTAVRDDGGGHANHSLFWTLLSPNGGGEPTGELAEEIKSTFGSFDQFKEKFAAAAAGRFGSGWAWLVVDDGKLEITSTPNQDSPLSEGKTPVLGLDVWEHAYYLNYQNRRPDYISAFWNVVNWDEVARLYSEAK
modifications: shellac coating; dextrin mixture
- tear film break-up time as compared with the 0.05% CsA group ([1]; 5 mg/kg and 10 mg/kg oral): similar
- tear film break-up time [1, 8]: 1.44 ± 0.15 s
- tear film break-up time [1, 9]: 1.42 ± 0.16 s
- tear film break-up time [1, 10]: 1.41 ± 0.25 s
- tear film break-up time [1, 11]: 1.23 ± 0.2 s
- tear film break-up time [1, 12]: 1.31 ± 0.3 s
- tear film break-up time [1, 13]: 1.28 ± 0.3 s
- tear film break-up time [1, 14]: 1.21 ± 0.3 s
- tear film break-up time [1, 15]: 1.28 ± 0.3 s
- tear film break-up time [1, 16]: 1.3 ± 0.3 s
- tear film break-up time as compared with the EDE and vehicle groups [1, 17]: significant increase
- corneal fluorescent staining score as compared with the 0.05% CsA group ([2]; 5 mg/kg oral): more significant decrease
- corneal fluorescent staining score [2, 8]: 9.2±1.7 points
- corneal fluorescent staining score [2, 9]: 9.4±1.7 points
- corneal fluorescent staining score [2, 10]: 9.3±1.7 points
- corneal fluorescent staining score [2, 11]: 10.4±1.9 points
- corneal fluorescent staining score [2, 12]: 9.9±2.5 points
- corneal fluorescent staining score [2, 13]: 10.1±2.9 points
- corneal fluorescent staining score [2, 14]: 8.8±2 points
- corneal fluorescent staining score [2, 15]: 7.8±1.9 points
- corneal fluorescent staining score [2, 16]: 8.2±1.9 points
- corneal fluorescent staining score as compared with the EDE and vehicle groups [2, 17]: significant decrease
- IFN-γ [3, 18]: 21.27 ± 17.49 pg/mL
- IL-1β [3, 18]: 21.5 ± 9.26 pg/mL
- TNF-α [3, 18]: 22.6 ± 7.72 pg/mL
- IFN-γ [3, 19]: 18.28 ± 11.75 pg/mL
- IL-1β [3, 19]: 19.0 ± 7.17 pg/mL
- TNF-α [3, 19]: 18.8 ± 11.6 pg/mL
- IFN-γ [3, 20]: 15.53 ± 11.43 pg/mL
- IL-1β [3, 20]: 16.3 ± 9.12 pg/mL
- TNF-α [3, 20]: 22.5 ± 11.4 pg/mL
- concentrations of IFN-γ, IL-1β, and TNF-α as compared with the EDE and vehicle groups [3, 21]: tendency of decreased concentrations
- IFN-γ [3, 22]: 10.77 ± 8.30 pg/mL
- IL-1β [3, 22]: 15.45 ± 8.93 pg/mL
- TNF-α [3, 22]: 22.6 ± 7.72 pg/mL
- IFN-γ [3, 23]: 9.80 ± 6.11 pg/mL
- IL-1β [3, 23]: 13.17 ± 2.26 pg/mL
- TNF-α [3, 23]: 18.8 ± 11.6 pg/mL
- IFN-γ [3, 24]: 7.89 ± 7.90 pg/mL
- IL-1β [3, 24]: 8.69 ± 4.18 pg/mL
- TNF-α [3, 24]: 22.5 ± 11.4 pg/mL
- inflammatory cytokines as compared with CsA ([3]; oral, all doses): tended to decrease inflammatory cytokines more than CsA
- proportion of CD4+IFN-γ+T cells [4, 18]: 21.00±0.63%
- proportion of CD4+IFN-γ+T cells [4, 19]: 22.87±2.47%
- proportion of CD4+IFN-γ+T cells [4, 20]: 25.83±0.27%
- proportion of CD4+IFN-γ+T cells as compared with the EDE and vehicle groups [4, 21]: significant decrease
- proportion of CD4+IFN-γ+T cells as compared with the 0.05% CsA group ([4]; cornea, 2.5 mg/kg oral): significantly lower
- proportion of CD4+IFN-γ+T cells [4, 22]: 21.18±0.15%
- proportion of CD4+IFN-γ+T cells [4, 23]: 23.87±0.17%
- proportion of CD4+IFN-γ+T cells [4, 24]: 30.24±1.33%
- amount of reactive oxygen species generated [5, 18]: 55.13±7.41%
- amount of reactive oxygen species generated [5, 19]: 57.63±8.16%
- amount of reactive oxygen species generated [5, 20]: 53.29±1.19%
- effect of decreasing generation of reactive oxygen species as compared with the CsA group ([5]; cornea, 2.5 mg/kg oral): better effect
- amount of reactive oxygen species generated [5, 22]: 33.57±26.51%
- amount of reactive oxygen species generated [5, 23]: 54.53±13.53%
- amount of reactive oxygen species generated [5, 24]: 57.38±23.43%
- amount of reactive oxygen species generated ([5]; lacrimal gland, 2.5 mg/kg oral once a day): 59.05±10.77%
- amount of reactive oxygen species generated ([5]; lacrimal gland, 5 mg/kg oral once a day): 56.03±6.37%
- amount of reactive oxygen species generated ([5]; lacrimal gland, 10 mg/kg oral once a day): 49.92±4.19%
- number of goblet cells in the conjunctiva ([6]; 2.5 mg/kg oral once a day): 27.9±6.9 cells/100 μm
- number of goblet cells as compared with the 0.05% CsA group ([6]; 5 mg/kg oral): more significant increase
- number of goblet cells in the conjunctiva ([6]; 5 mg/kg oral once a day): 35.8±10.2 cells/100 μm
- number of goblet cells in the conjunctiva ([6]; 10 mg/kg oral once a day): 32.2±3.9 cells/100 μm
- number of goblet cells in the conjunctiva, change in treatment groups ([6]; all treatment groups: 0.05% CsA, SodA2 2.5, 5 and 10 mg/kg oral): significant increase
- number of necrotic cells in the cornea ([7]; 2.5 mg/kg oral once a day): 6.2±1.1 cells/100 μm
- number of necrotic cells in the cornea ([7]; 5 mg/kg oral once a day): 4.0±1.3 cells/100 μm
- number of necrotic cells in the cornea ([7]; 10 mg/kg oral once a day): 4.6±1.3 cells/100 μm
- number of dead cells in the cornea as compared with the EDE and vehicle groups ([7]; groups treated with CsA and oral SodA2): significantly decreased
